{
  "source": "patent US20220175920A1",
  "about": "(INSERM INSTITUT NATIONAL DE LA SANTE ET DE LA RECHERCHE …, published 2022)",
  "binders": {"B1": {"name": "anti-CD40 12E12 human IgG4 antibody (antibody, V domains shown)", "VH": "EVQLVESGGGLVQPGGSLKLSCATSGFTFSDYYMYWVRQAPGKGLEWVAYINSGGGSTYYPDTVKGRFTISRDNAKNTLYLQMNSLRAEDTAVYYCARRGLPFHAMDYWGQGTLVTVSS", "VL": "DIQMTQSPSSLSASVGDRVTITCSASQGISNYLNWYQQKPGKAVKLLIYYTSILHSGVPSRFSGSGSGTDYTLTISSLQPEDFATYYCQQFNKLPPTFGGGTK", "notes": "also called mAb6 [12E12]; anti-CD40 12E12 IgG4"}, "B2": {"name": "anti-CD40 11B6 human IgG4 antibody (antibody, V domains shown)", "VH": "EVQLVQSGAEVKKPGASVKISCKASGYSFTGYYMHWVKQAHGQGLEWIGRINPYNGATSYNQNFKDRATLTVDKSTSTAYMELSSLRSEDTAVYYCAREDYVYWGQGTTVTVSS", "VL": "DVVMTQSPLSLPVTLGQPASISCRSSQSLVHSNGNTYLHWYQQRPGQSPRLLIYKVSNRFSGVPDRFSGSGSGTDFTLKISRVEAEDVGVYFCSQSTHVPWTFGGGTKLEIKR", "notes": "also called mAb1 [11B6 VH/VkV2]; PAB3405"}, "B3": {"name": "anti-CD40 12B4 human IgG4 antibody (antibody, V domains shown)", "VH": "EVQLQQSGPELVKPGASVKMSCKASGYTFTDYVLHWVKQKPGQGLEWIGYINPYNDGTKYNEKFKGKATLTSDKSSSTAYMELSSLTSEDSAVYYCARGYPAYSGYAMDYWGQGTSVTVSS", "VL": "DIQMTQTTSSLSASLGDRVTISCRASQDISNYLNWYQQKPDGTVKLLIYYTSRLHSGVPSRFSGSGSGTDYSLTISNLEQEDIATYFCHHGNTLPWTFGGGTK", "notes": "also called mAb3 [12B4]"}, "B4": {"name": "CP-870,893 formatted as human IgG4 (antibody, V domains shown)", "VH": "not shown", "VL": "DIQMTQSPSSVSASVGDRVTITCRASQGIYSWLAWYQQKPGKAPNLLIYTASTLQSGVPSRFSGSGSGTDFTLTISSLQPEDFATYYCQQANIFPLTFGGGTK", "notes": "also called mAb5 [CP870893]; anti-CD40 CP"}, "B5": {"name": "anti-CD40 24A3 human IgG4 antibody (antibody, V domains shown)", "VH": "DVQLQESGPDLVKPSQSLSLTCTVTGYSITSDYSWHWIRQFPGNKLEWMGYIYYSGSTNYNPSLKSRISITRDTSKNQFFLQLNSVTTEDSATYFCARFYYGYSFFDYWGQGTTLTVSS", "VL": "QIVLTQSPAFMSASPGEKVTMTCSASSSVSYMHWYQQKSGTSPKRWIYDTSKLASGVPARFSGSGSGTSYSLTISSMEAEDAATYYCQQWSSNPLTFGAGTK", "notes": "also called mAb4 [24A3]"}},
  "data": [
    {"target": "T1, cohesin-human CD40 ectodomain protein (P3398) (human)", "T1 construct": "SPR analyte; also called soluble human CD40 ectodomain; liquid phase soluble human CD40 ectodomain; not shown: cohesin domain of P3398 and its junction to CD40", "T1 sequence (chain, as listed by the source limits assumed)": "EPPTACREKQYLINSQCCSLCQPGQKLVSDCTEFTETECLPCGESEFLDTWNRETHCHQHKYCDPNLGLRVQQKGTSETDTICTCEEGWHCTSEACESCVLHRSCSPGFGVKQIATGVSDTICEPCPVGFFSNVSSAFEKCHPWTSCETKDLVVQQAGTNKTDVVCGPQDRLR", "assay": "SPR", "units": {"Kd": "nM"}, "values": [
      {"binder": "B1", "Kd": 28}
    ]},
    {"target": "T2, human CD40 ectodomain fused to FAS transmembrane and intracellular domains, on CHO cells (human)", "T2 sequence (chain, as listed by the source limits assumed)": "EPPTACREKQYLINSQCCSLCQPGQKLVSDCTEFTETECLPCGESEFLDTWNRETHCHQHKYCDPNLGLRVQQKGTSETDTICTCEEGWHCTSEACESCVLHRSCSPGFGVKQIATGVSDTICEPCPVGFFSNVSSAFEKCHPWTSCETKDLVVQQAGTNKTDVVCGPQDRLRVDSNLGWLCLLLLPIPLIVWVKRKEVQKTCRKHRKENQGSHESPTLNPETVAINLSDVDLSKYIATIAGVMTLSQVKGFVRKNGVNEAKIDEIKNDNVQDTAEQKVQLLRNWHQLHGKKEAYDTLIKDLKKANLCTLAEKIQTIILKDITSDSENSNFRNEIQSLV", "assay": "cell-based or functional assay", "units": {"EC50 of killing of CD40-FAS CHO cells (loss of MTT reduction)": "nM"}, "values": [
      {"binder": "B2", "EC50 of killing of CD40-FAS CHO cells (loss of MTT reduction)": "~2.5"},
      {"binder": "B1", "EC50 of killing of CD40-FAS CHO cells (loss of MTT reduction)": "~1"}
    ]},
    {"target": "T3, human CD40 on cells (B cells, MDDCs, stably transfected CHO cells) (human, UniProt P25942 21-277)", "T3 sequence (P25942 21-277)": "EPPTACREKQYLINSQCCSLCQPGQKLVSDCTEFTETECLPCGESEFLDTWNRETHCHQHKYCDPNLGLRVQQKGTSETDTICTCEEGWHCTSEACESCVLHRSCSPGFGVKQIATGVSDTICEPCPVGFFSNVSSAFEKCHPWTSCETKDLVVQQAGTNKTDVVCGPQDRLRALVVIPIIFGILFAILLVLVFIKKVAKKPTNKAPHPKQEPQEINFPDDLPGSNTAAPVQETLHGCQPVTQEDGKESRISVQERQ", "assay": "cell-based or functional assay", "units": {"EC50 (nM) B cell: dose for 50% of maximum B cell proliferation": "nM", "EC50/EC50 CP, B cell proliferation": "ratio", "EC50 w/sCD40L (nM): B cell proliferation with constant 6 nM soluble human CD40L": "nM", "Δ w/sCD40L (fold): fold difference in B cell proliferation EC50 with constant 6 nM soluble human CD40L": "fold"}, "values": [
      {"binder": "B2", "EC50 (nM) B cell: dose for 50% of maximum B cell proliferation": "≥ 10", "EC50/EC50 CP, B cell proliferation": "≥ 100", "EC50 w/sCD40L (nM): B cell proliferation with constant 6 nM soluble human CD40L": "≥ 0.1", "Δ w/sCD40L (fold): fold difference in B cell proliferation EC50 with constant 6 nM soluble human CD40L": "≥ 100"},
      {"binder": "B3", "EC50/EC50 CP, B cell proliferation": "~10", "Δ w/sCD40L (fold): fold difference in B cell proliferation EC50 with constant 6 nM soluble human CD40L": "~0"},
      {"binder": "B1", "EC50/EC50 CP, B cell proliferation": "~10", "Δ w/sCD40L (fold): fold difference in B cell proliferation EC50 with constant 6 nM soluble human CD40L": "~0"},
      {"binder": "B4", "EC50/EC50 CP, B cell proliferation": 1, "Δ w/sCD40L (fold): fold difference in B cell proliferation EC50 with constant 6 nM soluble human CD40L": "~0"},
      {"binder": "B5", "EC50 (nM) B cell: dose for 50% of maximum B cell proliferation": "> 10", "EC50/EC50 CP, B cell proliferation": "≥ 1000", "Δ w/sCD40L (fold): fold difference in B cell proliferation EC50 with constant 6 nM soluble human CD40L": "~100"}
    ]},
    {"target": "T3, human CD40 on cells (B cells, MDDCs, …)", "assay": "cell-based or functional assay", "remark": "another data set of the same source", "units": {"EC50 (nM) cytokines: 50% of maximum cytokine secretion by MDDCs": "nM", "EC50/EC50 CP, MDDC cytokine secretion": "ratio", "EC50 w/sCD40L (nM): MDDC cytokine secretion with constant suboptimal soluble human CD40L": "nM", "Δ w/sCD40L (fold): MDDC cytokine secretion EC50": "fold"}, "values": [
      {"binder": "B2", "EC50 (nM) cytokines: 50% of maximum cytokine secretion by MDDCs": "> 10", "EC50/EC50 CP, MDDC cytokine secretion": "> 1000", "EC50 w/sCD40L (nM): MDDC cytokine secretion with constant suboptimal soluble human CD40L": "≥ 0.1", "Δ w/sCD40L (fold): MDDC cytokine secretion EC50": "> 1000"},
      {"binder": "B3", "EC50 (nM) cytokines: 50% of maximum cytokine secretion by MDDCs": "> 10", "EC50/EC50 CP, MDDC cytokine secretion": "≥ 100", "Δ w/sCD40L (fold): MDDC cytokine secretion EC50": "~0"},
      {"binder": "B1", "EC50 (nM) cytokines: 50% of maximum cytokine secretion by MDDCs": "> 10", "EC50/EC50 CP, MDDC cytokine secretion": "> 1000", "EC50 w/sCD40L (nM): MDDC cytokine secretion with constant suboptimal soluble human CD40L": "> 10", "Δ w/sCD40L (fold): MDDC cytokine secretion EC50": "~0"},
      {"binder": "B4", "EC50 (nM) cytokines: 50% of maximum cytokine secretion by MDDCs": "~0.1", "EC50/EC50 CP, MDDC cytokine secretion": 1, "EC50 w/sCD40L (nM): MDDC cytokine secretion with constant suboptimal soluble human CD40L": "≥ 0.01", "Δ w/sCD40L (fold): MDDC cytokine secretion EC50": "~100"},
      {"binder": "B5", "EC50 (nM) cytokines: 50% of maximum cytokine secretion by MDDCs": "> 10", "EC50/EC50 CP, MDDC cytokine secretion": "> 1000", "EC50 w/sCD40L (nM): MDDC cytokine secretion with constant suboptimal soluble human CD40L": "≥ 10", "Δ w/sCD40L (fold): MDDC cytokine secretion EC50": "> 1000"}
    ]},
    {"target": "T4, human CD40 ectodomain mouse Fc fusion protein (human, UniProt P25942 21-193)", "T4 construct": "a human Fc version was used with the mouse mAbs; also called soluble CD40", "assay": "competition, flow cytometry: mAb pre-incubated with CD40 ectodomain-Fc, then CD40L-transfected L cells", "units": {"fold higher antibody level required to partially block CD40 binding to CD40L, against the stoichiometric amounts of 12B4 and 12E12": "fold"}, "values": [
      {"binder": "B4", "fold higher antibody level required to partially block CD40 binding to CD40L, against the stoichiometric amounts of 12B4 and 12E12": "> 20"}
    ]},
    {"target": "T1, cohesin-human CD40 ectodomain protein …", "assay": "SPR (SensiQ Pioneer), hIgG4 mAb captured on Protein A/G, cohesin-human CD40 ectodomain in solution", "units": {"Kd": "nM", "koff": "s⁻¹", "kon": "M⁻¹ s⁻¹"}, "values": [
      {"binder": "B2", "Kd": 217, "koff": 0.064, "kon": 300000},
      {"binder": "B3", "Kd": 100, "koff": 0.027, "kon": 250000},
      {"binder": "B1", "Kd": 33, "koff": 0.0046, "kon": 150000},
      {"binder": "B4", "Kd": 71, "koff": 0.0022, "kon": 46000},
      {"binder": "B5", "Kd": 97, "koff": 0.008, "kon": 83000}
    ]},
    {"target": "T3, human CD40 on cells (B cells, MDDCs, …)", "assay": "flow cytometry, stably transfected CHO cells, 1 h on ice, goat anti-human IgG-PE, % of events in gate P1 [panel CD40 CHO]", "units": {"EC50 (read off the curve)": "nM"}, "values": [
      {"binder": "B2", "EC50 (read off the curve)": "~0.0002"},
      {"binder": "B1", "EC50 (read off the curve)": "~0.0003"},
      {"binder": "B4", "EC50 (read off the curve)": "~0.003"}
    ]},
    {"target": "T2, human CD40 ectodomain fused to FAS …", "assay": "flow cytometry, stably transfected CHO cells, 1 h on ice, goat anti-human IgG-PE, % of events in gate P1 [panel WT CD40-FAS CHO]", "units": {"EC50 (read off the curve)": "nM"}, "values": [
      {"binder": "B2", "EC50 (read off the curve)": "~0.0003"},
      {"binder": "B1", "EC50 (read off the curve)": "~0.0005"},
      {"binder": "B4", "EC50 (read off the curve)": "~0.004"}
    ]},
    {"target": "CD40 E28A FAS (mutated CD40 ectodomain fused to FAS) on CHO cells (human)", "sequence (chain, as listed by the source E28A E28A)": "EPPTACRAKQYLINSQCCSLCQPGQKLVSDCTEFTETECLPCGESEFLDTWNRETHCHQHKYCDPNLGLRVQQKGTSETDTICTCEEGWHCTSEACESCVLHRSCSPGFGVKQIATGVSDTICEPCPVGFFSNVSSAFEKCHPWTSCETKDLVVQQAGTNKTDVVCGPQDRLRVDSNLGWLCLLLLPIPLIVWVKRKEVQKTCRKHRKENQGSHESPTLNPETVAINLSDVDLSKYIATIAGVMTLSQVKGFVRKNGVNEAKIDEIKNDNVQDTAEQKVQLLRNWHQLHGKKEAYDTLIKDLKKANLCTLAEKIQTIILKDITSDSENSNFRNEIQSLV", "assay": "flow cytometry, stably transfected CHO cells, 1 h on ice, goat anti-human IgG-PE, % of events in gate P1 [panel CD40 E28A FAS CHO]", "units": {"EC50 (read off the curve)": "nM"}, "values": [
      {"binder": "B2", "EC50 (read off the curve)": "~0.0002"},
      {"binder": "B1", "EC50 (read off the curve)": "~0.0002"},
      {"binder": "B4", "EC50 (read off the curve)": "~0.01"}
    ]},
    {"target": "CD40 R27A FAS (mutated CD40 ectodomain fused to FAS) on CHO cells (human)", "sequence (chain, as listed by the source R27A R27A)": "as the sequence (chain, as listed by the source E28A E28A) above, with R7A, A8E counted along it", "assay": "flow cytometry, stably transfected CHO cells, 1 h on ice, goat anti-human IgG-PE, % of events in gate P1 [panel CD40 R27A FAS CHO]", "units": {"EC50 (read off the curve)": "nM"}, "values": [
      {"binder": "B2", "EC50 (read off the curve)": "~0.0003"},
      {"binder": "B1", "EC50 (read off the curve)": "~0.0003"},
      {"binder": "B4", "binding result": "no binding"}
    ]},
    {"target": "T4, human CD40 ectodomain mouse Fc fusion …", "assay": "competition flow cytometry: human IgG4 mAb titrated into 2 ug/ml human CD40 ectodomain-mouse Fc, 1 h on ice, then added to human CD40L-transfected L cells; cell-bound CD40-Fc detected with anti-IgG-PE; blocked ligand: CD40L on L cells [right panel]", "units": {"IC50 (read off the curve)": "µg/mL"}, "values": [
      {"binder": "B3", "IC50 (read off the curve)": "~0.2"},
      {"binder": "B1", "IC50 (read off the curve)": "~0.5"}
    ]}
  ]
}
